Legend:
[1] = biological target: CORYNE (CRN; At5g13290) (Arabidopsis) (UniProt Q9LYU7); experiment: cell-based or functional assay
[2] = biological target: CLAVATA2 (CLV2; At1g65380) (Arabidopsis) (UniProt O80809); experiment: cell-based or functional assay
Sequence of UniProt O80809 (O80809 26-720): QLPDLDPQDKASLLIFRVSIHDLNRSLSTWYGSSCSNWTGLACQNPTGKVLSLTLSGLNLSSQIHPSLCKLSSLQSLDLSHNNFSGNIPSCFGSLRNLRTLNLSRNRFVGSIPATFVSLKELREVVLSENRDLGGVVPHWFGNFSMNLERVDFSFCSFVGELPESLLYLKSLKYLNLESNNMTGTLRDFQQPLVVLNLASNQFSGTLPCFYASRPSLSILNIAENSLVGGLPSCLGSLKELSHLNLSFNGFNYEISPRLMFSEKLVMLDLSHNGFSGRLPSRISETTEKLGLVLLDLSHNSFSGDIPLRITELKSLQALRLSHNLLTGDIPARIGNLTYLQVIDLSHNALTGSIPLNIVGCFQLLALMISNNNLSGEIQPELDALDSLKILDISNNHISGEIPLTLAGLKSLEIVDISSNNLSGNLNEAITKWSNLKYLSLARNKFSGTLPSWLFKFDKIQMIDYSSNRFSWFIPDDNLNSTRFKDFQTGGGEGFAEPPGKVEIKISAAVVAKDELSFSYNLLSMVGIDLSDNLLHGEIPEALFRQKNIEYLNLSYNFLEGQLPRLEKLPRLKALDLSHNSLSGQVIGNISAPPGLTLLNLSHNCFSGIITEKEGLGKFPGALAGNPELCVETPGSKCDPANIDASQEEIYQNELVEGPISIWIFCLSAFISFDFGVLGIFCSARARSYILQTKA

Sequence of UniProt Q9LYU7 (Q9LYU7 34-401): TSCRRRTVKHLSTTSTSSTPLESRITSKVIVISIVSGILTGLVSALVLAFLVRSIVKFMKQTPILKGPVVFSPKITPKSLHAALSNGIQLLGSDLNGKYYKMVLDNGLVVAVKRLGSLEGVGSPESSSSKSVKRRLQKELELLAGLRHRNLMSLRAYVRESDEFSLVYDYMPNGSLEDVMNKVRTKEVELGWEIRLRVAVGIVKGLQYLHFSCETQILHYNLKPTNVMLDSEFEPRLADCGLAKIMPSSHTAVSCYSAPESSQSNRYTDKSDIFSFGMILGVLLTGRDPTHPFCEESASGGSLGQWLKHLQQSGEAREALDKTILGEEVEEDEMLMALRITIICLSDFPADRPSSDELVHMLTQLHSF

Substance	wus-like (%) T1 shoot phenotypes, overexpression in crn-1 [1]	wus-like (%) T1 shoot phenotypes, overexpression in clv2-1 [2]
HsCLE2 (beet cyst nematode CLE protein, overexpressed in Arabidopsis) (ligand)	0%	0%
HsCLE1 (beet cyst nematode CLE protein, overexpressed in Arabidopsis) (ligand)	0%	0%
HgCLE2ΔSP (soybean cyst nematode CLE protein, overexpressed in Arabidopsis) (ligand)	0%	0%

— US20130326736A1
